The text below walks through data of patent US20250381281A1, “METHODS OF MANUFACTURING PEPTIDE-BASED VACCINES” (priority 2018, published 2025).

Data set [1] has as its system CD8 T cell responses. In words: CD8 T cell response of mice vaccinated with Cpne1 peptide antigen conjugates, intracellular cytokine staining for IFN-g. Format: in vivo, C57BL/6 mice. To be noted: SC route; vaccinated day 0, 14, 28; whole blood. The method, then: Mice were vaccinated on day 0, 14, and 28. CD8 T cell responses were measured on day 7, 21, 35, and 42 from whole blood using an intracellular cytokine staining assay for IFN-g production; and
To evaluate the suitability of immunogenic compositions based on peptide antigen fragments comprising aryl amines, mice were either vaccinated with peptide antigen conjugates of formula C-B1-A-B2-L-H, either comprising a charged moiety with positive charge, […] Tyr-Ser-Pro-Val-Cit-Lys(N3-DBCO)-Glu(2B)-Trp-Glu(2B)-Trp-Glu(2B)—NH2 (SEQ ID NO: 76) or a charged moiety with negative charge and a B2 comprised of amino acids bearing aryl amines, i.e., Ac-Glu-Glu-Glu-Glu-Glu-Val-Cit-[…]Try-[…]Cit-Phe(NH2)-Phe(NH2)-Phe(NH2)-Phe(NH2)-Lys(N3-DBCO)-Glu(2B)-Trp-Glu(2B)-Trp-Glu(2B)—NH2 (SEQ ID NO: 42), wherein Phe(NH2) is para-amino-phenylalanine.

A short description of data set [2]: Particle size and stability of amphiphilic carrier molecules by dynamic light scattering. The data set is classed as physicochemical. Conditions: PBS pH 7.4, 0.5 mg/mL, peptide-based linear carriers. The procedure: This reaction scheme was used to prepare different compositions of amphiphilic carrier molecules that were characterized for the capacity to form stable nanoparticle micelles in aqueous buffer, PBS pH 7.4, at a concentration of 0.5 mg/mL of amphiphilic carrier molecule. The results of these studies are summarized below according to the chemical composition and architecture of the amphiphilic carrier molecule.
A series of linear amphiphilic carriers of formula C-B-L-H, wherein the charged moiety (C) and spacer (B) comprises peptides, i.e., poly(lysine) and poly(serine-co-glycine), respectively, with varying hydrophobic block composition were evaluated for particle size and stability by dynamic light scattering. […]

Data set [3] concerns CD8 T cell responses. In words: CD8 T cell response of mice vaccinated with Adpgk peptide antigen conjugates, intracellular cytokine staining for IFN-g. The data set is classed as in vivo, C57BL/6 mice. To be noted: SC route; vaccinated day 0, 14, 28; whole blood.
Description: Mice were vaccinated on day 0, 14, and 28. CD8 T cell responses were measured on day 12, 21, and 35 from whole blood using an intracellular cytokine staining assay for IFN-g production;

Non-standard residues stand in square brackets, D forms with d. Primed or numbered codes have the meaning given here. No end group written: not given here. Lys(N3)′ = its azide, alkyne or alkene has reacted where a group follows in round brackets; DBCO′ = not defined here; F′ = aminophenylalanine; Ahx = NCCCCCC(=O)O

“Ac-Glu-Glu-Glu-Glu-Glu-Val-Cit-Asp-Phe-Thr-Gly-Ser-Asn-Gly-Asp-Pro-Ser-Ser-Pro-Try-Ser-Leu-His-Tyr-Leu-Ser-Pro-Thr-Gly-Val-Asn-Glu-Tyr-Ser-Pro-Val-Cit-Phe(NH2)-Phe(NH2)-Phe(NH2)-Phe(NH2)-Lys(N3-DBCO)-Glu(2B)-Trp-Glu(2B)-Trp-Glu(2B)—NH2 (EEEEEVXDFTGSNGDPSSPYSLHYLSPTGVNEYSPVXXXXXX; acetyl, citrulline, DBCO click conjugate, amidated; SITE 1 Wherein Glu is modified with an acetyl group at the N-terminus; SITE 7 citrulline (Cit); SITE 37 citrulline (Cit); SITE 38..41 para-amino-phenylalanine.; SITE 42 azido-lysine (Lys(N3))) [SEQ ID NO: 42, negatively charged Cpne1 peptide antigen conjugate]”: in data set [1], the “CD8 T cell responses detected in vaccinated animals” value was “detected in all vaccinated animals” and the “CD8 T cell responses, tris salts of the negatively charged conjugate” value is on record as “CD8 T cell responses were induced in all animals”.

Turning to “KKK-SGSGSGSGSGSGSGSGSGSGSGSG-(Lys(N3-DBCO))-Ahx-(F′)20: peptide-based linear amphiphilic carrier molecule C-B-L-H (chain 1 KKKSGSGSGSGSGSGSGSGSGSGSGSG[Lys(N3)′](DBCO′)[Ahx]; chain 2 [F′][F′][F′][F′][F′][F′][F′][F′][F′][F′][F′][F′][F′][F′][F′][F′][F′][F′][F′][F′]; also: chain 2 (F′)20 follows Ahx of chain 1)”, the “Size (diameter, nm)” value in data set [2] amounted to 1521 nm.

“KKKKKKK-SGSGSGSGSGSGSGSGSGSGSGSG-(Lys(N3-DBCO))-Ahx-(F′)20: peptide-based linear amphiphilic carrier molecule C-B-L-H”: the “Size (diameter, nm)” value in data set [2] turned out to be 32 nm.

Turning to “Ac-Glu-Glu-Glu-Glu-Glu-Glu-Glu-Val-Cit-Gly-Ile-Pro-Val-His-Leu-Glu-Leu-Ala-Ser-Met-Thr-Asn-Met-Glu-Leu-Met-Ser-Ser-Ile-Val- His-Gln-Gln-Val-Phe-Pro-Thr-Ser-Pro-Val-Cit-Phe(NH2)-Phe(NH2)-Phe(NH2)-Phe(NH2)-Lys(N3-DBCO)-Glu(2B)-Trp-Glu(2B)-Trp-Glu(2B)—NH2 (EEEEEEEVXGIPVHLELASMTNMELMSSIVHQQVFPTSPVXXXXXX; N-acetyl, citrulline, Phe(NH2), DBCO click, Glu(2B), amide; SITE 1 Wherein Glu is modified with an acetyl group at the N-terminus; SITE 9 citrulline (Cit); SITE 41 citrulline (Cit); SITE 42..45 para-amino-phenylalanine; SITE 46 azido-lysine (Lys(N3))) [SEQ ID NO: 40]”, the “CD8 T cell responses” value in data set [3] is “CD8 T cell responses were induced in all animals”.

On to “KKK-SGSGSGSGSGSGSGSGSGSGSGSG-(Lys(N3-DBCO))-Bis(Ahx-F′10)2: peptide-based linear amphiphilic carrier molecule C-B-L-H (chain 1 KKKSGSGSGSGSGSGSGSGSGSGSGSG[Lys(N3)′](DBCO′)[Ahx]; chain 2 [F′][F′][F′][F′][F′][F′][F′][F′][F′][F′]; also: two Ahx-F′10 arms, branching not given here, one arm shown)”, for which the “Size (diameter, nm)” value in data set [2] is listed as 2683 nm.

For “KKK-SGSGSGSGSGSGSGSGSGSGSGSG-(Lys(N3-DBCO))-Ahx-(F′)10: peptide-based linear amphiphilic carrier molecule C-B-L-H (chain 1 KKKSGSGSGSGSGSGSGSGSGSGSGSG[Lys(N3)′](DBCO′)[Ahx]; chain 2 [F′][F′][F′][F′][F′][F′][F′][F′][F′][F′]; also: chain 2 (F′)10 follows Ahx of chain 1)”, the “Size (diameter, nm)” value in data set [2] turned out to be 3839 nm.

Turning to “KKK-SGSGSGSGSGSGSGSGSGSGSGSG-(Lys(N3-DBCO))-Ahx-(F′)5: peptide-based linear amphiphilic carrier molecule C-B-L-H (chain 1 KKKSGSGSGSGSGSGSGSGSGSGSGSG[Lys(N3)′](DBCO′)[Ahx]; chain 2 [F′][F′][F′][F′][F′]; also: chain 2 (F′)5 follows Ahx of chain 1)”, in data set [2], the “Size (diameter, nm)” value turned out to be 1013 nm.

Turning to “KKKKKKK-SGSGSGSGSGSGSGSGSGSGSGSG-(Lys(N3-DBCO))-Ahx-(F′)5: peptide-based linear amphiphilic carrier molecule C-B-L-H”, the “Size (diameter, nm)” value in data set [2] is given as 477 nm.

For “Lys-Lys-Lys-Lys-Lys-Lys-Lys-Lys-Lys-Val-Arg-Asp-Phe-Thr-Gly-Ser-Asn-Gly-Asp-Pro-Ser-Ser-Pro-Tyr-Ser-Leu-His-Tyr-Leu-Ser-Pro-Thr-Gly-Val-Asn-Glu- Tyr-Ser-Pro-Val-Cit-Lys(N3-DBCO)-Glu(2B)-Trp-Glu(2B)-Trp-Glu(2B)—NH2 (KKKKKKKKKVRDFTGSNGDPSSPYSLHYLSPTGVNEYSPVXX; citrulline, DBCO click conjugate, amidated; SITE 41 citrulline (Cit); SITE 42 azido-lysine (Lys(N3))) [SEQ ID NO: 76, positively charged Cpne1 peptide antigen conjugate]”, in data set [1], the “CD8 T cell responses detected in vaccinated animals” value is “detected in all vaccinated animals”.
